From article PMC4923858

How the values were obtained:
TβRII-GFP [1] = molecular target: TβRII-GFP (UniProt P37173); test: AFM single-molecule force spectroscopy; TGF-β1-modified AFM tips on live HeLa cells expressing TβRII-GFP; contact mode, room temperature, loading rate 1.0 x 10^4 pN/s; cells treated with 50 μM metformin
TβRII-GFP [2] = molecular target: TβRII-GFP (UniProt P37173); test: AFM single-molecule force spectroscopy; TGF-β1-modified AFM tips on live HeLa cells expressing TβRII-GFP; contact mode, room temperature, loading rate 1.0 x 10^4 pN/s; untreated cells

Sequence of TβRII-GFP (P37173 23-567): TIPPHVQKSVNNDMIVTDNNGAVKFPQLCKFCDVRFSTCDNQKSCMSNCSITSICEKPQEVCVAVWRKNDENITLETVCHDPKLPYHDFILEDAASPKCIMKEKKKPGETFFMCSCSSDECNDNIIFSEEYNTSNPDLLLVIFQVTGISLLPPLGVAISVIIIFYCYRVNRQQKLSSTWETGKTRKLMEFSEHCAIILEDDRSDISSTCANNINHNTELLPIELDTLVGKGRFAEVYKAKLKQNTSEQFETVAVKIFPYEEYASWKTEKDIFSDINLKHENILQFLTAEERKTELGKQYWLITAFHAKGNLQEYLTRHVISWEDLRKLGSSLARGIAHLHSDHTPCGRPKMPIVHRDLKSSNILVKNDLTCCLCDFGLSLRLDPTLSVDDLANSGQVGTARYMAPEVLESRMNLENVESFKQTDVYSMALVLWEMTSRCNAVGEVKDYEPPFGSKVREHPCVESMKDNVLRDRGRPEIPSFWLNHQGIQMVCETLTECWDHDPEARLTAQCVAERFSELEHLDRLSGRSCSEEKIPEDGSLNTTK

Substance: Recombinant human TGF-β1 (ligand)
- binding force (averaged histogram peak value), with 50 μM metformin (TβRII-GFP [1]): 49.3 pN
- binding probability, with 50 μM metformin (TβRII-GFP [1]): 9.9%
- binding force (averaged histogram peak value) (TβRII-GFP [2]): 49.5 pN
- binding probability (TβRII-GFP [2]): 21.7%
